{
  "source": "patent US20170305981A1",
  "about": "(UNIVERSITY OF CHICAGO, published 2017)",
  "key": {"[1]": {"molecular_target": "T1, hepatic lipase (HL) on hepatocyte (HepG2) cells (UniProt P11150 23-499, limits assumed)", "T1 sequence (looked up)": "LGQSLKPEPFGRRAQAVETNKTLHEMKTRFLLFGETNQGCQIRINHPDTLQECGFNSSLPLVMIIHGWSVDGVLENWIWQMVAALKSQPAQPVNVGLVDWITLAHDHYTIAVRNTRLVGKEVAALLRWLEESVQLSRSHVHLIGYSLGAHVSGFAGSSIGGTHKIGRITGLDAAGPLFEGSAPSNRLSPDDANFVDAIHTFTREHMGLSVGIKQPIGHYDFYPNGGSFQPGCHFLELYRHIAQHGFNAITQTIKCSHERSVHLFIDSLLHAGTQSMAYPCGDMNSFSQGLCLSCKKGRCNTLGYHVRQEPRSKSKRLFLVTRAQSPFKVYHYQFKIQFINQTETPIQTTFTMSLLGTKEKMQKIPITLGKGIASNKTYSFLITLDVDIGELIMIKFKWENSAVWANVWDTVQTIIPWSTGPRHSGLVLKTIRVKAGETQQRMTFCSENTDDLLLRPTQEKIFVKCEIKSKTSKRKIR", "assay": "cell-based or functional assay"}, "[2]": {"molecular_target": "lipoprotein lipase (LpL), SIGMA", "sequence (P11151 29-478)": "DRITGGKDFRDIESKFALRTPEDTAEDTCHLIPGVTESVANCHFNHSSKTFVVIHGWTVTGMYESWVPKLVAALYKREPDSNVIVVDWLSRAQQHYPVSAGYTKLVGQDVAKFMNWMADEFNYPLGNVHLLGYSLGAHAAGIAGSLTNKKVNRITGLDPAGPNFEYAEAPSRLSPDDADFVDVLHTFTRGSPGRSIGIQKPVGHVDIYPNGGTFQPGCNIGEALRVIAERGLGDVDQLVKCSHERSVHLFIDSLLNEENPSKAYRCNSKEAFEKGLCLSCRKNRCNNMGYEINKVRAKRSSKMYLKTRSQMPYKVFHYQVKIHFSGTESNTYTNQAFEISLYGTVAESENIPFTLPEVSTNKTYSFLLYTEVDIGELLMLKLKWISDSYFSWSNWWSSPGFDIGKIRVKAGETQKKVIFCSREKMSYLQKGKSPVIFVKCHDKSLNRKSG", "assay": "cell-based or functional assay"}},
  "data": [
    {"binder": "ARLSRCVQVLSRKLTLKAKALHARIQQNLDQLREELSRA", "note": "[AV199-237]", "values": [
      {"measurement": "hepatic lipase activity in cell culture", "setting": "[1]", "value": "~3", "unit": "fold"},
      {"measurement": "hepatic lipase activity in live hepatocytes, 10 µM peptide", "setting": "[1]", "value": "~2.8", "unit": "fold"}
    ]},
    {"binder": "ARLSRCVQVLSRKLTLKAKALKARIQQNLDQLRE", "note": "[AV-H/K]", "values": [
      {"measurement": "LpL activity in the absence of VLDL, 10 µM peptide", "setting": "[2]", "value": "~1.6", "unit": "fold"},
      {"measurement": "LpL activity in the presence of VLDL, 10 µM peptide", "setting": "[2]", "value": "~8", "unit": "fold"},
      {"measurement": "LpL activity in the presence of VLDL, relative to AV199-232", "setting": "[2]", "value": 44, "unit": "%"}
    ]},
    {"binder": "ARLSRCVQVFSRKLTLKAKALKARIQQNFDQLRE", "note": "[AV-H/K-2F]", "values": [
      {"measurement": "lipase stimulating activity, peptide (80 µg/ml) preincubated with VLDL (20 µg/ml)", "setting": "[2]", "value": "~2", "unit": "fold"}
    ]}
  ]
}
